Laboratory results published in PMC10397247.
One block for each binder: values may come before it.

Assays:
APC1242-AA = target: T1, APC1242-AA; experiment: two-hybrid library CCmax;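 further: natural log of median RNA to DNA barcode read ratio; higher means stronger binding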
T1 chain: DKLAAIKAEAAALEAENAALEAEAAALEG

APC1916-AA = target: T2, APC1916-AA; experiment: two-hybrid library CCmax; conditions: mean of both orientations;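 further: natural log of median RNA to DNA barcode read ratio; higher means stronger binding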
T2 chain: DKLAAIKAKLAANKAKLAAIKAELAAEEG

APC1987-AA = target: T3, APC1987-AA; experiment: two-hybrid library CCmax; conditions: mean of both orientations;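 further: natural log of median RNA to DNA barcode read ratio; higher means stronger binding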
T3 chain: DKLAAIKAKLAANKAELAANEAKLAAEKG

APC222-AA = target: T4, APC222-AA; experiment: two-hybrid library CCmax; conditions: mean of both orientations;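 further: natural log of median RNA to DNA barcode read ratio; higher means stronger binding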
T4 chain: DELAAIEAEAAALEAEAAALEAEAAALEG

APC2257-AA = target: T5, APC2257-AA; experiment: two-hybrid library CCmax; conditions: mean of both orientations
T5 chain: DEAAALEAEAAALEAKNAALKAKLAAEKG

APC2375-AA = target: T6, APC2375-AA; experiment: two-hybrid library CCmax; conditions: mean of both orientations
T6 chain: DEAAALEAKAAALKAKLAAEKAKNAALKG

APC2474-AA = target: T7, APC2474-AA; experiment: two-hybrid library CCmax; conditions: mean of both orientations
T7 chain: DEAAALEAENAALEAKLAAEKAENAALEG

APC2543-AA = target: T8, APC2543-AA; experiment: two-hybrid library CCmax; conditions: mean of both orientations
T8 chain: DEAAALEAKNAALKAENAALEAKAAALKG

APC2556-AA = target: T9, APC2556-AA; experiment: two-hybrid library CCmax; conditions: mean of both orientations
T9 chain: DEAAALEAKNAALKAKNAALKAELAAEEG

APC2724-AA = target: T10, APC2724-AA; experiment: two-hybrid library CCmax; conditions: mean of both orientations
T10 chain: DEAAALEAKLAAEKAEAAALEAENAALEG

APC2811-AA = target: T11, APC2811-AA; experiment: two-hybrid library CCmax; conditions: mean of both orientations
T11 chain: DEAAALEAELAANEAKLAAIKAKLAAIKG

APC2981-AA = target: T12, APC2981-AA; experiment: two-hybrid library CCmax; conditions: mean of both orientations
T12 chain: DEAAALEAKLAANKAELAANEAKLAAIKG

APC3265-AA = target: T13, APC3265-AA; experiment: two-hybrid library CCmax; conditions: mean of both orientations
T13 chain: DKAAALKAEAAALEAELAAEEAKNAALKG

APC3323-AA = target: T14, APC3323-AA; experiment: two-hybrid library CCmax; conditions: mean of both orientations
T14 chain: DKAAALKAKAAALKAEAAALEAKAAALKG

APC3354-AA = target: T15, APC3354-AA; experiment: two-hybrid library CCmax; conditions: mean of both orientations
T15 chain: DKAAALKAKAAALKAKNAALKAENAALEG

APC3881-AA = target: T16, APC3881-AA; experiment: two-hybrid library CCmax; conditions: mean of both orientations
T16 chain: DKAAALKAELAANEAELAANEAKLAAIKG

APC4100-AA = target: T17, APC4100-AA; experiment: two-hybrid library CCmax; conditions: mean of both orientations
T17 chain: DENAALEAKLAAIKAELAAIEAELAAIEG

APC4336-AA = target: T18, APC4336-AA; experiment: two-hybrid library CCmax; conditions: mean of both orientations
T18 chain: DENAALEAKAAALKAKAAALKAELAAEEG

APC5009-AA = target: T19, APC5009-AA; experiment: two-hybrid library CCmax; conditions: mean of both orientations
T19 chain: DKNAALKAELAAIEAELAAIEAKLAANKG

APC542-AA = target: T20, APC542-AA; experiment: two-hybrid library CCmax; conditions: mean of both orientations
T20 chain: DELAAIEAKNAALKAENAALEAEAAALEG

APC5531-AA = target: T21, APC5531-AA; experiment: two-hybrid library CCmax; conditions: mean of both orientations
T21 chain: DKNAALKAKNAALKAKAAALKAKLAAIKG

APC6088-AA = target: T22, APC6088-AA; experiment: two-hybrid library CCmax; conditions: mean of both orientations
T22 chain: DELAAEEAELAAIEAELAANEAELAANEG

APC7524-AA = target: T23, APC7524-AA; experiment: two-hybrid library CCmax; conditions: mean of both orientations
T23 chain: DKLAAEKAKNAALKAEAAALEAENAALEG

APC8401-AA = target: T24, APC8401-AA; experiment: two-hybrid library CCmax; conditions: mean of both orientations
T24 chain: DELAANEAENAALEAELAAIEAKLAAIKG

APC8516-AA = target: T25, APC8516-AA; experiment: two-hybrid library CCmax; conditions: mean of both orientations
T25 chain: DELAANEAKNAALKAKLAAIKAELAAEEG

APC9141-AA = target: T26, APC9141-AA; experiment: two-hybrid library CCmax; conditions: mean of both orientations
T26 chain: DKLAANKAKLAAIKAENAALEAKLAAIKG

APC9182-AA = target: T27, APC9182-AA; experiment: two-hybrid library CCmax; conditions: mean of both orientations
T27 chain: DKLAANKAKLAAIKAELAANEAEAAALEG

APC9291-AA = target: T28, APC9291-AA; experiment: two-hybrid library CCmax; conditions: mean of both orientations
T28 chain: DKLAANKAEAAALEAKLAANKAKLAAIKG

APC9806-AA = target: T29, APC9806-AA; experiment: two-hybrid library CCmax; conditions: mean of both orientations
T29 chain: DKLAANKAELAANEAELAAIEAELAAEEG

4H182-bN = target: T30, 4H182-bN; experiment: two-hybrid library CCNG1
T30 chain: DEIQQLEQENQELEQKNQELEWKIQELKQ

4H2134-bN = target: T31, 4H2134-bN; experiment: two-hybrid library CCNG1
T31 chain: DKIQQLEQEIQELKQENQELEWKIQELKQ

4H2143-bN = target: T32, 4H2143-bN; experiment: two-hybrid library CCNG1
T32 chain: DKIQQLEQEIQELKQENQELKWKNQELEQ

4H2223-bN = target: T33, 4H2223-bN; experiment: two-hybrid library CCNG1
T33 chain: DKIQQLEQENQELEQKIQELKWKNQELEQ

4H2438-bN = target: T34, 4H2438-bN; experiment: two-hybrid library CCNG1
T34 chain: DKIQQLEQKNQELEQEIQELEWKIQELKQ

4H2473-bN = target: T35, 4H2473-bN; experiment: two-hybrid library CCNG1
T35 chain: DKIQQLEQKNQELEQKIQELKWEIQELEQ

4H2503-bN = target: T36, 4H2503-bN; experiment: two-hybrid library CCNG1
T36 chain: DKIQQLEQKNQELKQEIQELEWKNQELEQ

4H2588-bN = target: T37, 4H2588-bN; experiment: two-hybrid library CCNG1
T37 chain: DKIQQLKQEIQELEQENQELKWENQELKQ

4H2692-bN = target: T38, 4H2692-bN; experiment: two-hybrid library CCNG1
T38 chain: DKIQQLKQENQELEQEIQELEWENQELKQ

4H2717-bN = target: T39, 4H2717-bN; experiment: two-hybrid library CCNG1
T39 chain: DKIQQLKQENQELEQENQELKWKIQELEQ

4H2839-bN = target: T40, 4H2839-bN; experiment: two-hybrid library CCNG1
T40 chain: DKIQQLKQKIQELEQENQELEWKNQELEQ

4H2915-bN = target: T41, 4H2915-bN; experiment: two-hybrid library CCNG1
T41 chain: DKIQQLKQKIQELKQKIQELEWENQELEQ

4H3057-bN = target: T42, 4H3057-bN; experiment: two-hybrid library CCNG1
T42 chain: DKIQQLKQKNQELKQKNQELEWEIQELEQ

4H319-bN = target: T43, 4H319-bN; experiment: two-hybrid library CCNG1
T43 chain: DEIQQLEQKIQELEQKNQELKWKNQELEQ

4H3277-bN = target: T44, 4H3277-bN; experiment: two-hybrid library CCNG1
T44 chain: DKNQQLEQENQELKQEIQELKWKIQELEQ

4H348-bN = target: T45, 4H348-bN; experiment: two-hybrid library CCNG1
T45 chain: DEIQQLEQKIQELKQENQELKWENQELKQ

4H40-bN = target: T46, 4H40-bN; experiment: two-hybrid library CCNG1
T46 chain: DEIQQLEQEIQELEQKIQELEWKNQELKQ

4H462-bN = target: T47, 4H462-bN; experiment: two-hybrid library CCNG1
T47 chain: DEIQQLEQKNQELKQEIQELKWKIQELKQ

4H477-bN = target: T48, 4H477-bN; experiment: two-hybrid library CCNG1
T48 chain: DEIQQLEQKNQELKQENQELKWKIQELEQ

4H492-bN = target: T49, 4H492-bN; experiment: two-hybrid library CCNG1
T49 chain: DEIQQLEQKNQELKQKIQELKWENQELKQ

4H575-bA = target: T50, 4H575-bA; experiment: two-hybrid library CCNG1
T50 chain: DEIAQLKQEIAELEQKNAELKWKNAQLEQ

4H741-bN = target: T51, 4H741-bN; experiment: two-hybrid library CCNG1
T51 chain: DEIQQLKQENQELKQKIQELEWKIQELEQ

4H908-bN = target: T52, 4H908-bN; experiment: two-hybrid library CCNG1
T52 chain: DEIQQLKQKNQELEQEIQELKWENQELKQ

interaction score (APC1242-AA): -1.39 | interaction score (APC1916-AA): -0.197 | interaction score (APC1987-AA): -1.67 | interaction score (APC222-AA): -1.71 | interaction score (APC2257-AA): -1.45 | interaction score (APC2375-AA): -1.54 | interaction score (APC2474-AA): -1.53 | interaction score (APC2543-AA): -1.38 | interaction score (APC2556-AA): -1.73 | interaction score (APC2724-AA): -1.96 | interaction score (APC2811-AA): -1.73 | interaction score (APC2981-AA): -1.87 | interaction score (APC3265-AA): -1.56 | interaction score (APC3323-AA): -1.85 | interaction score (APC3354-AA): -1.74 | interaction score (APC3881-AA): -1.81 | interaction score (APC4100-AA): -1.76 | interaction score (APC4336-AA): -2.21 | interaction score (APC5009-AA): -1.74 | interaction score (APC542-AA): -2.16 | interaction score (APC5531-AA): -1.83 | interaction score (APC6088-AA): -1.12 | interaction score (APC7524-AA): -1.82 | interaction score (APC8401-AA): -1.53 | interaction score (APC8516-AA): -1.75 | interaction score (APC9141-AA): -1.7 | interaction score (APC9182-AA): -1.34 | interaction score (APC9291-AA): -1.76 | interaction score (APC9806-AA): -1.43
Binder: DKLAAIKAEAAALEAENAALEAEAAALEG [APC1242-AA]

interaction score (4H182-bN): -0.13 | interaction score (4H2134-bN): -0.568 | interaction score (4H2143-bN): -0.437 | interaction score (4H2223-bN): -0.0217 | interaction score (4H2438-bN): -0.143 | interaction score (4H2473-bN): -0.481 | interaction score (4H2503-bN): -0.284 | interaction score (4H2588-bN): -0.916 | interaction score (4H2692-bN): 0.536 | interaction score (4H2717-bN): 0.137 | interaction score (4H2839-bN): 0.367 | interaction score (4H2915-bN): 0.186 | interaction score (4H3057-bN): 2.24 | interaction score (4H319-bN): -0.552 | interaction score (4H3277-bN): -0.0991 | interaction score (4H348-bN): -0.689 | interaction score (4H40-bN): 0.0984 | interaction score (4H462-bN): -0.134 | interaction score (4H477-bN): -1.61 | interaction score (4H492-bN): 0.471 | interaction score (4H575-bA): -2.96 | interaction score (4H741-bN): -0.228 | interaction score (4H908-bN): -2.24
Binder: DEIQQLEQENQELEQKNQELEWKIQELKQ [4H182-bN]
